B1: Auxin-responsive protein IAA17 (Arabidopsis thaliana (Mouse-ear cress)), P93830 (parent)
chain: MMGSVELNLRETELCLGLPGGDTVAPVTGNKRGFSETVDLKLNLNNEPANKEGSTTHDVVTFDSKEKSACPKDPAKPPAKAQVVGWPPVRSYRKNVMVSCQKSSGGPEAAAFVKVSMDGAPYLRKIDLRMYKSYDELSNALSNMFSSFTMGKHGGEEGMIDFMNERKLMDLVNSWDYVPSYEDKDGDWMLVGDVPWPMFVDTCKRLRLMKGSDAIGLAPRAMEKCKSRA
partner: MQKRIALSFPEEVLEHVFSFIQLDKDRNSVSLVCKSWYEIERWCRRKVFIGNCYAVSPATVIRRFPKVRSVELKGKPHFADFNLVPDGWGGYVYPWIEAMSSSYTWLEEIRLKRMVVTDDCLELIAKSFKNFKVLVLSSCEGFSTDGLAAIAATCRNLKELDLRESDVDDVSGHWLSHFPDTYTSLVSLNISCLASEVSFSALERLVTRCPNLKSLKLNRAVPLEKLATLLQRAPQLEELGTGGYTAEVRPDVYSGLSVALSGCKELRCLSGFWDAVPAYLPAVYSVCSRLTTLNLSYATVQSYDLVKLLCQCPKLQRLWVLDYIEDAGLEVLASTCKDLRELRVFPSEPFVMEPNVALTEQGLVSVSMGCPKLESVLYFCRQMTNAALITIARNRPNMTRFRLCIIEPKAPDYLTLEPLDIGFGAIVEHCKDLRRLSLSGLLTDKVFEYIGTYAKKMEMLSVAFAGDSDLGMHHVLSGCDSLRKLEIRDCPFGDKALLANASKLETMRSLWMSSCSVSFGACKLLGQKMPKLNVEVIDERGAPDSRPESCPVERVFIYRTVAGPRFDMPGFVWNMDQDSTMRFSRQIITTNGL

Variants of: B1
Conditions: with tir1_arath TIR1, Q570C0

Row | Variant | effect of a mutation on the interaction
1 | P88L | decreasing interaction

From IntAct's records for PubMed 11713520
